Measured values from patent US20260103513A1 (HEFEI TG IMMUNOPHARMA, published 2026).

T1: TIGIT protein overexpressed on cells (Homo sapiens (Human), UniProt Q495A1 22-244)
T1 construct: also called CHO-K1-TIGIT
T1 sequence: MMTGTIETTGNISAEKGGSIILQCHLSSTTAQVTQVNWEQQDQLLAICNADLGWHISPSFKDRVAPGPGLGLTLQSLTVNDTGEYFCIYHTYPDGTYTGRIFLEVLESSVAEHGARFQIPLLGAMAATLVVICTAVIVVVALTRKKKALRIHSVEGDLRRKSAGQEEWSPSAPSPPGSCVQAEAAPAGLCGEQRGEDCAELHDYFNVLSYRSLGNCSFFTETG

T2: Human TIGIT-His tag fusion protein (human, UniProt Q495A1 22-141)
T2 construct: extracellular domain; Bought (Acro); also called TIGIT extracellular domain-His tag fusion protein; TIGIT protein; not shown: His tag
T2 sequence (looked up): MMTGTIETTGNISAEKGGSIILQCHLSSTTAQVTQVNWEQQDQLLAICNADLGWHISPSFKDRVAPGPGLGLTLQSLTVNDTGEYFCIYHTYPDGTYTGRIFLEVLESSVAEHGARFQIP


Columns and labels:
[1] = target: T1, TIGIT protein overexpressed on cells; assay: flow cytometry on CHO-K1-TIGIT cells, binding percentage (%)
[2] = target: T1, TIGIT protein overexpressed on cells; assay: flow cytometry competition on CHO-K1-TIGIT cells; blocked ligand CD155-mIgG2a-Fc, binding percentage (%)
[3] = target: T2, Human TIGIT-His tag fusion protein; assay: ELISA, human TIGIT-His coated, HRP anti-human IgG, OD450
[4] = target: T1, TIGIT protein overexpressed on cells; assay: flow cytometry on 293T-TIGIT cells, Alexa-647 anti-human Fc, MFI
[5] = target: T3, Cynomolgus monkey TIGIT-His tag fusion protein (cynomolgus monkey, UniProt A0A7N9I9V4 89-209); assay: ELISA, cynomolgus TIGIT-His coated, HRP anti-human IgG, OD450
T3 construct: extracellular domain; Bought (Acro); also called TIGIT extracellular domain-His tag fusion protein; TIGIT protein; not shown: His tag

[6] = target: T1, TIGIT protein overexpressed on cells; assay: flow cytometry competition on 293T-TIGIT cells; blocked ligand CD155-mIgG2a-Fc, APC anti-mouse IgG2a, MFI
[7] = target: T2, Human TIGIT-His tag fusion protein; assay: competition ELISA on coated TIGIT-His; blocked ligand CD155-Biotin; the sheet does not name the species of the TIGIT-His
[8] = target: T4, recombinant TIGIT extracellular domain-Fc fusion protein; assay: SPR, Biacore T200, TIGIT-Fc amine-coupled on CM5, antibody injected, 1:1 Langmuir model
T4 construct: Covalently coupled to the CM5 chip in the Biacore assay; also called TIGIT-Fc
Method: The Biacore method is a well-established objective assay for detecting the affinity and kinetics between proteins. The TIGIT antibody of the present disclosure was analyzed using Biacore T200 to characterize its affinity and binding kinetics.
The TIGIT extracellular domain-Fc fusion protein (TIGIT-Fc) was covalently attached to a CM5 (GE) chip using a standard amino coupling method. A series of TIGIT antibodies diluted in PBS buffer at a concentration gradient was then injected in cycles, followed by regeneration with 10 mM NaOH solution. The antigen-antibody binding kinetics were monitored for 3 minutes, followed by dissociation kinetics for 10 minutes. The resulting data were analyzed using GE's BIAevaluation software in a 1:1 (Langmuir) binding model.

Binder	EC50 (read off the curve) [1] [µg/mL]	IC50 (read off the curve) [2] [µg/mL]	EC50 (read off the curve) [3] [µg/mL]	EC50 (read off the curve) [4] [µg/mL]	EC50 (read off the curve) [5] [µg/mL]	IC50 (read off the curve) [6] [µg/mL]	IC50 (read off the curve) [7] [µg/mL]	Kd [8] [nM]	koff [8] [s⁻¹]	kon [8] [M⁻¹ s⁻¹]
4.1D3 (antibody, mouse IgG2a, kappa, V domains shown, Comparator, made with mouse IgG2a heavy and mouse kappa light constant regions; also called 4.1D3-mIgG2a; 4.1D3 antibody) VH: EVQLQQSGPGLVKPSQTLSLTCAISGDSVSSNSAAWNWIRQSPSRGLEWLGKTYYRFKWYSDYAVSVKGRITINPDTSKNQFSLQLNSVTPEDTAVFYCTRESTTYDLLAGPFDYWGQGTLVTVSS VL: not shown	~0.1	~0.3	–	–	–	–	–	–	–	–
22G2 (antibody, mouse IgG2a, kappa, V domains shown, Comparator, mouse IgG2a heavy and mouse kappa light constant regions; the printed heavy chain reads VVVAVSE (as in the D265A form) although it is named only mIgG2a; also called 22G2-mIgG2a; 22G2 antibody) VH: QVQLQESGPGLVKPSETLSLTCTVSGGSVSSGIYYWSWIRQPPGKGLEWIGYIYYSGSTNYNPSLKSRVTISVDTSKNQFSLKLSSVTAADTAVYYCARDYYVSGNYYNVDYYFFGVDVWGQGTTVTVSS VL: EIVLTQSPATLSLSPGERATLSCRASQSVSSYLAWYQQKPGQAPRLLIYDASNRATGIPARFSGSGSGTDFTLTISSLEPEDFAVYYCQQRSNWPPLFTFGPGTKVDIKR	~0.2	~0.2	–	–	–	–	–	–	–	–
H401LV2-hIgG1 (antibody, Wild-type human IgG1 constant region, human kappa light chain (H401LV2-hK); also called TIGIT antibody H401LV2) heavy: not shown light: DIVMTQSPSSMSTSVGDRVTITCRASQDVFNQVAWYQQKPGKSPKLLIYSASFRYTGVPDRFSGSGSGTDFTFTISSVQAEDFATYYCQQHYSTPLTFGAGTKLELKRTVAAPSVFIFPPSDEQLKSGTASVVCLLNNFYPREAKVQWKVDNALQSGNSQESVTEQDSKDSTYSLSSTLTLSKADYEKHKVYACEVTHQGLSSPVTKSFNRGEC	–	–	~0.04	~0.4	~0.02	~0.5	~0.8	–	–	–
H401LV2-hIgG1LALA (antibody, also called TIGIT antibody H401LV2) heavy: not shown light: DIVMTQSPSSMSTSVGDRVTITCRASQDVFNQVAWYQQKPGKSPKLLIYSASFRYTGVPDRFSGSGSGTDFTFTISSVQAEDFATYYCQQHYSTPLTFGAGTKLELKRTVAAPSVFIFPPSDEQLKSGTASVVCLLNNFYPREAKVQWKVDNALQSGNSQESVTEQDSKDSTYSLSSTLTLSKADYEKHKVYACEVTHQGLSSPVTKSFNRGEC	–	–	~0.04	~0.6	~0.02	~0.5	~0.8	–	–	–
H401LV2 (antibody, V domains shown, also called matured TIGIT antibody H401LV2) VH: QVQLQESGPGLVKPSQTLSLTCTVTGSSITSDYAWNWIRQFPGKKLEWMGYITYSGRTTYNPSLKSRITISRDTSKNQFSLKLSSVTAADTATYYCARWGLLRRYFDYWGQGTLLTVSS VL: DIVMTQSPSSMSTSVGDRVTITCRASQDVFNQVAWYQQKPGKSPKLLIYSASFRYTGVPDRFSGSGSGTDFTFTISSVQAEDFATYYCQQHYSTPLTFGAGTKLELK	–	–	–	–	–	–	–	≤ 0.00508	≤ 1e-06	197000

Further lines, results first:

EC50 (read off the curve) [1] [µg/mL]	IC50 (read off the curve) [2] [µg/mL]	EC50 (read off the curve) [3] [µg/mL]	EC50 (read off the curve) [4] [µg/mL]	EC50 (read off the curve) [5] [µg/mL]	IC50 (read off the curve) [6] [µg/mL]	IC50 (read off the curve) [7] [µg/mL]	Kd [8] [nM]	koff [8] [s⁻¹]	kon [8] [M⁻¹ s⁻¹]	Binder
–	–	~0.04	–	~0.02	~0.5	~0.8	–	–	–	H401LV2-hIgG4S228P (antibody, also called TIGIT antibody H401LV2) heavy: not shown light: DIVMTQSPSSMSTSVGDRVTITCRASQDVFNQVAWYQQKPGKSPKLLIYSASFRYTGVPDRFSGSGSGTDFTFTISSVQAEDFATYYCQQHYSTPLTFGAGTKLELKRTVAAPSVFIFPPSDEQLKSGTASVVCLLNNFYPREAKVQWKVDNALQSGNSQESVTEQDSKDSTYSLSSTLTLSKADYEKHKVYACEVTHQGLSSPVTKSFNRGEC
–	–	–	–	~0.04	–	~0.8	5.06	0.000501	98900	Hu4A501 (antibody, V domains shown, also called parental antibody Hu4A501; parent antibody Hu4A501) VH: QVQLQESGPGLVKPSQTLSLTCTVTGSSITSDYAWNWIRQFPGKKLEWMGYITYSGRTTYNPSLKSRITISRDTSKNQFSLKLSSVTAADTATYYCARWGLLRRYFDYWGQGTLLTVSS VL: DIVMTQSPSSMSTSVGDRVTITCRASQDVFTAVAWYQQKPGKSPKLLIYSASFRYTGVPDRFSGSGSGTDFTFTISSVQAEDFATYYCQQHYSTPLTFGAGTKLELKR
~0.05	~0.2	–	–	–	–	–	–	–	–	H401LV2-mIgG2a (antibody, Mouse IgG2a constant region, mouse kappa light chain (H401LV2-mK); also called TIGIT antibody H401LV2-mIgG2a) heavy: QVQLQESGPGLVKPSQTLSLTCTVTGSSITSDYAWNWIRQFPGKKLEWMGYITYSGRTTYNPSLKSRITISRDTSKNQFSLKLSSVTAADTATYYCARWGLLRRYFDYWGQGTLLTVSSAKTTAPSVYPLAPVCGDTTGSSVTLGCLVKGYFPEPVTLTWNSGSLSSGVHTFPAVLQSDLYTLSSSVTVTSSTWPSQSITCNVAHPASSTKVDKKIEPRGPTIKPCPPCKCPAPNLLGGPSVFIFPPKIKDVLMISLSPIVTCVVVDVSEDDPDVQISWFVNNVEVHTAQTQTHREDYNSTLRVVSALPIQHQDWMSGKEFKCKVNNKDLPAPIERTISKPKGSVRAPQVYVLPPPEEEMTKKQVTLTCMVTDFMPEDIYVEWTNNGKTELNYKNTEPVLDSDGSYFMYSKLRVEKKNWVERNSYSCSVVHEGLHNHHTTKSFSRTPGK light: DIVMTQSPSSMSTSVGDRVTITCRASQDVFNQVAWYQQKPGKSPKLLIYSASFRYTGVPDRFSGSGSGTDFTFTISSVQAEDFATYYCQQHYSTPLTFGAGTKLELKRADAAPTVSIFPPSSEQLTSGGASVVCFLNNFYPKDINVKWKIDGSERQNGVLNSWTDQDSKDSTYSMSSTLTLTKDEYERHNSYTCEATHKTSTSPIVKSFNRNEC
